From the Human Domainome abundance scans (Beltran et al. 2025)
± gives the uncertainty stated by the source.

B1: Pyruvate dehydrogenase protein X component, mitochondrial, residues 181 to 227; numbered along this chain, O00330 (parent)
chain: RFRLSPAARNILEKHSLDASQGTATGPRGIFTKEDALKLVQLKQTGK
B2: CD2-associated protein, residues 1 to 59; numbered along this chain, Q9Y5K6 (parent)
chain: MVDYIVEYDYDAVHDDELTIRVGEIIRNVKKLQEEGWLEGELNGRRGMFPDNFVKEIKR

Variants of: B1
Test: abundance fitness (aPCA) (normalised: wild type 0, dead -1); higher = more abundant; growth selection in yeast, the domain comes from the species named
Details: Homo sapiens

Variant	abundance fitness
R3C	-0.064 ± 0.069
R3E	-0.57 ± 0.069
R3I	0.367 ± 0.097
R3L	-0.393 ± 0.05
R3P	-0.188 ± 0.073
R3G	-0.336 ± 0.047
R3M	-0.091 ± 0.077
R3A	-0.504 ± 0.061
R3D	-0.594 ± 0.13
R3N	0.31 ± 0.1
R3F	0.144 ± 0.06
R3H	0.04 ± 0.11
R3K	-0.16 ± 0.078
F2G	-0.535 ± 0.04
F2D	-0.267 ± 0.088
F2V	-0.486 ± 0.056
F2H	-0.878 ± 0.16
F2C	-0.605 ± 0.075
F2Y	-0.015 ± 0.083
F2L	-0.46 ± 0.046
F2N	0.091 ± 0.073
F2A	-0.536 ± 0.063
F2M	0.137 ± 0.081

Variant	abundance fitness
F2T	-0.323 ± 0.079
F2E	-0.316 ± 0.059
F2W	-1.25 ± 0.11
F2K	-0.232 ± 0.073
F2Q	-0.679 ± 0.13
F2R	-0.65 ± 0.041
F2I	-0.059 ± 0.1
F2P	-1.1 ± 0.14
F2S	-0.239 ± 0.046
R1S	0.145 ± 0.095
R1N	-0.353 ± 0.29
R1W	-0.651 ± 0.16
R1I	-0.317 ± 0.36
R1M	-0.489 ± 0.17
R1V	-0.685 ± 0.054
R1C	-0.516 ± 0.27
R1Q	-0.362 ± 0.32
R1G	0.171 ± 0.063
R1P	-1.1 ± 0.25
R1K	-0.289 ± 0.17
R1A	0.02 ± 0.23
R1E	-0.206 ± 0.14
R1T	-1.29 ± 0.45

Variants of: B2
Test: as above
Details: Homo sapiens

Variant	abundance fitness
E56I	-0.286 ± 0.44
E56C	-0.044 ± 0.4
E56A	-0.002 ± 0.12
E56Q	-0.217 ± 0.25
E56K	0.024 ± 0.28
E56T	-0.244 ± 0.17
E56M	-0.152 ± 0.21
E56L	-0.18 ± 0.1
E56S	-0.256 ± 0.11
E56V	-0.05 ± 0.27
E56R	-0.137 ± 0.089
E56P	0.06 ± 0.19
G40A	-0.999 ± 0.4
G40R	-0.858 ± 0.23
G40K	-0.541 ± 0.18
G40E	-0.926 ± 0.41
G40V	-0.904 ± 0.43
G40L	-0.945 ± 0.24
G40D	-0.825 ± 0.36
G40M	-0.661 ± 0.31
G40S	-0.463 ± 0.12
K58R	-0.036 ± 0.14
K58E	0.001 ± 0.22
K58G	-0.008 ± 0.29

Variant	abundance fitness
K58V	-0.315 ± 0.29
K58C	-0.099 ± 0.24
K58Q	0.059 ± 0.43
K58M	-0.138 ± 0.25
K58A	-0.021 ± 0.27
K55N	-0.272 ± 0.17
K55H	-0.301 ± 0.27
K55L	-0.303 ± 0.094
K55Y	-0.294 ± 0.23
K55F	-0.961 ± 0.42
K55P	-0.507 ± 0.37
K55S	-0.07 ± 0.079
K55C	-0.027 ± 0.15
K55R	0.009 ± 0.072
K55G	-0.216 ± 0.1
K55W	-0.771 ± 0.32
K55M	-0.218 ± 0.14
K55D	-0.755 ± 0.33
K55Q	0.032 ± 0.11
K55I	-0.177 ± 0.12
K55E	-0.489 ± 0.3
W37S	-0.277 ± 0.12
W37L	-0.273 ± 0.075
W37R	-0.298 ± 0.14

Variant	abundance fitness
W37V	-0.253 ± 0.093
W37Q	-0.32 ± 0.12
W37Y	-0.02 ± 0.28
W37G	-0.779 ± 0.25
W37M	-0.219 ± 0.15
W37K	-0.469 ± 0.35
W37T	-0.359 ± 0.14
W37I	-0.451 ± 0.18
R45S	-0.07 ± 0.079
R45C	0.033 ± 0.26
R45Q	-0.009 ± 0.13
R45V	-0.275 ± 0.13
R45L	-0.224 ± 0.11
R45Y	-0.359 ± 0.24
R45H	0.232 ± 0.2
R45N	-0.16 ± 0.14
R45G	-0.7 ± 0.31
R45K	-0.075 ± 0.23
R45F	-0.248 ± 0.19
R45M	-0.274 ± 0.14
R45I	-0.191 ± 0.12
R45A	-0.27 ± 0.14
L42T	-0.515 ± 0.18
L42I	0.043 ± 0.22

Variant	abundance fitness
L42C	-0.012 ± 0.13
L42M	-0.678 ± 0.21
L42H	-0.297 ± 0.15
L42V	-0.146 ± 0.14
L42A	-0.327 ± 0.15
L42Q	-0.328 ± 0.19
L42S	-0.267 ± 0.1
L42F	-0.212 ± 0.12
L42W	-0.399 ± 0.16
L42Y	-0.839 ± 0.43
R46I	-0.243 ± 0.37
R46Q	-0.301 ± 0.21
R46M	-0.066 ± 0.2
R46T	-0.082 ± 0.13
R46L	-0.245 ± 0.12
R46F	-0.346 ± 0.2
R46E	-0.445 ± 0.26
R46S	-0.402 ± 0.13
R46C	-0.363 ± 0.2
R46K	-0.181 ± 0.17
R46W	-0.434 ± 0.16
R59E	0.138 ± 0.12
R59L	0.063 ± 0.11
R59C	0.035 ± 0.29

Variant	abundance fitness
R59P	0.2 ± 0.15
R59M	-0.058 ± 0.1
R59K	0.012 ± 0.14
R59G	0.011 ± 0.097
R59H	0.107 ± 0.14
R59Q	0.024 ± 0.25
R59F	-0.182 ± 0.22
R59W	-0.126 ± 0.1
R59Y	-0.156 ± 0.26
R59A	-0.303 ± 0.22
R59S	0.052 ± 0.1
R59T	-0.011 ± 0.32
F49M	-0.38 ± 0.12
F49Q	-0.857 ± 0.43
F49V	-0.056 ± 0.17
F49K	-0.826 ± 0.43
F49I	-0.195 ± 0.15
F49A	-0.539 ± 0.26
F49L	-0.251 ± 0.09
F49P	-0.877 ± 0.3
F49S	-0.695 ± 0.15
F53P	-0.249 ± 0.11
F53T	0.205 ± 0.098
F53Y	-0.131 ± 0.13

Variant	abundance fitness
F53I	-0.119 ± 0.14
F53C	0.122 ± 0.083
F53D	-0.433 ± 0.14
F53W	-0.026 ± 0.35
F53L	0.056 ± 0.086
F53H	0.111 ± 0.11
F53N	-0.053 ± 0.072
F53Q	-0.317 ± 0.12
F53G	-0.145 ± 0.089
F53S	0.035 ± 0.071
F53R	0.001 ± 0.084
F53A	0.052 ± 0.073
F53E	-0.155 ± 0.21
F53M	-0.047 ± 0.28
F53V	0.023 ± 0.083
L38P	-1.07 ± 0.33
L38V	-0.525 ± 0.12
L38S	0.003 ± 0.074
L38E	-0.867 ± 0.42
L38R	-0.563 ± 0.13
L38K	-0.264 ± 0.23
L38M	0.049 ± 0.19
L38A	-0.25 ± 0.1
L38I	-0.433 ± 0.11

Variant	abundance fitness
L38Y	-0.27 ± 0.086
L38T	-0.548 ± 0.13
L38H	-0.662 ± 0.17
L38F	-0.105 ± 0.091
L38C	-0.193 ± 0.11
L38G	-0.996 ± 0.28
L38N	-0.558 ± 0.16
L38D	-0.721 ± 0.38
M48H	-0.257 ± 0.11
M48L	-0.065 ± 0.079
M48T	0.035 ± 0.094
M48W	-0.126 ± 0.11
M48Y	-0.063 ± 0.16
M48C	-0.012 ± 0.18
M48N	0.047 ± 0.17
M48A	0.045 ± 0.086
M48Q	-0.015 ± 0.082
M48P	-0.524 ± 0.22
M48S	0.048 ± 0.083
M48G	-0.33 ± 0.11
M48D	-0.573 ± 0.23
M48I	0.115 ± 0.17
M48R	0.071 ± 0.062
M48V	-0.053 ± 0.069

Variant	abundance fitness
M48K	0.093 ± 0.097
M48F	-0.175 ± 0.13
G44R	-0.133 ± 0.32
G44S	-0.592 ± 0.22
G44H	-0.549 ± 0.3
G44L	-0.547 ± 0.36
G44V	-0.843 ± 0.31
D51V	-0.066 ± 0.091
D51A	0.04 ± 0.059
D51L	-0.017 ± 0.067
D51C	-0.195 ± 0.45
D51H	-0.032 ± 0.099
D51I	0.092 ± 0.11
D51S	-0.055 ± 0.057
D51N	0.191 ± 0.3
D51G	-0.047 ± 0.076
D51E	0.032 ± 0.2
D51M	-0.136 ± 0.41
D51W	-0.425 ± 0.41
D51T	0.018 ± 0.071
D51P	-0.092 ± 0.083
D51R	-0.019 ± 0.064
D51Y	-0.125 ± 0.088
E41A	-0.388 ± 0.33

Variant	abundance fitness
E41R	-0.306 ± 0.09
E41D	-0.349 ± 0.27
E41V	-0.535 ± 0.22
E41I	-0.191 ± 0.25
E41M	-0.312 ± 0.2
E41N	-0.361 ± 0.49
E41W	-0.31 ± 0.14
E41Q	-0.352 ± 0.18
E41S	-0.013 ± 0.11
E41Y	-0.532 ± 0.28
N52H	-0.284 ± 0.13
N52V	0.061 ± 0.17
N52Q	-0.127 ± 0.13
N52S	0.107 ± 0.08
N52G	-0.128 ± 0.17
N52P	-0.065 ± 0.08
N52F	0.073 ± 0.13
N52E	-0.263 ± 0.34
N52T	-0.05 ± 0.11
N52L	-0.03 ± 0.078
N52I	-0.141 ± 0.18
N52R	0.028 ± 0.094
N52M	-0.155 ± 0.11
N52A	-0.091 ± 0.22

Variant	abundance fitness
N52K	0.071 ± 0.096
N52Y	-0.203 ± 0.19
N52D	-0.236 ± 0.23
N52C	-0.041 ± 0.17
P50R	0.115 ± 0.15
P50A	-0.502 ± 0.16
P50G	-0.322 ± 0.12
P50L	-0.412 ± 0.11
P50F	-0.589 ± 0.16
P50S	-0.329 ± 0.11
P50N	-0.261 ± 0.23
P50V	-0.996 ± 0.28
P50H	-0.149 ± 0.17
P50K	-0.184 ± 0.28
P50E	-0.968 ± 0.4
P50I	-0.843 ± 0.29
P50T	-0.746 ± 0.24
V54G	-0.075 ± 0.091
V54T	-0.209 ± 0.3
V54S	-0.358 ± 0.16
V54H	-0.484 ± 0.43
V54A	-0.258 ± 0.21
V54P	-0.604 ± 0.32
V54R	-0.557 ± 0.19

Variant	abundance fitness
E39H	-0.202 ± 0.14
E39Q	-0.248 ± 0.2
E39K	-0.302 ± 0.32
E39R	-0.486 ± 0.093
E39T	-0.26 ± 0.1
E39Y	-0.164 ± 0.15
E39S	-0.057 ± 0.087
E39M	-0.256 ± 0.13
E39V	-0.201 ± 0.11
E39N	-0.446 ± 0.21
E39A	-0.146 ± 0.12
E39F	-0.432 ± 0.19
E39I	-0.142 ± 0.17
E39L	-0.427 ± 0.1
E39C	0 ± 0.21
E39D	-0.541 ± 0.16
N43C	-0.383 ± 0.11
N43W	-0.562 ± 0.26
N43R	-0.082 ± 0.089
N43H	0.145 ± 0.15
N43K	-0.149 ± 0.12
N43Y	-0.072 ± 0.11
N43L	-0.323 ± 0.06
N43F	-0.409 ± 0.15

Variant	abundance fitness
N43G	-0.057 ± 0.15
N43Q	-0.287 ± 0.12
N43E	-0.192 ± 0.45
N43V	-0.694 ± 0.18
N43T	-0.62 ± 0.12
N43S	-0.221 ± 0.051
N43P	-0.653 ± 0.2
N43M	-0.395 ± 0.15
I57V	-0.03 ± 0.37
I57C	-0.25 ± 0.32
I57G	-0.157 ± 0.24
I57P	-0.326 ± 0.31
I57R	-0.007 ± 0.25
I57M	-0.205 ± 0.35
G36T	-0.618 ± 0.13
G36Y	-0.614 ± 0.15
G36P	-0.143 ± 0.17
G36S	-0.352 ± 0.08
G36R	-0.195 ± 0.1
G36N	-0.174 ± 0.12
G36L	-0.978 ± 0.18
G36Q	-0.467 ± 0.3
G36V	-0.745 ± 0.13
G36M	-0.433 ± 0.16
